Article PMC12457548, “Comparative Characterization of Plasmodium falciparum Small Heat Shock Proteins and Their Inhibition by Quercetin (3,3′,4′,5,7-Pentahydroxyflavone)” (The Protein Journal, 2025)

T1: PfHsp20b (Plasmodium falciparum, UniProt Q8IB02)
T1 construct: gene PF3D7_0816500; full-length, residues 1–173, N-terminal 6xHis
T1 sequence (Q8IB02 1-172): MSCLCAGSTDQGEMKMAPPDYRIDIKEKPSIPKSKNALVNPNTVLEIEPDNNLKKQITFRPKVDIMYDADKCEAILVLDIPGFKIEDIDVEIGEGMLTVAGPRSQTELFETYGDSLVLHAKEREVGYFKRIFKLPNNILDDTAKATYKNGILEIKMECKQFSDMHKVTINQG

B1: PfHsp20a (natural protein, Plasmodium falciparum, UniProt Q8IES0 1-211, looked up)
chain: MSENNLSKDNNKNKRNEALENAGMLDTFFESMYDHMNRLDQYHSDMNRMMNSLRGYYMNNDFFRFFPNRRSLTDYDINRNRNHDLLLSKPFSSMFRRDGYSNVPAMDVLDKEKHLEIKMDVPGLNKEDVQINLDDGKLEISGEFKKSHEQKDEQQRYYIKERCESSFYRSFTLPENVSEDEIKATFKDGVLKIDIPKKDIPDKKKKKIEID
notes: Codon-harmonised synthetic gene in pQE30 between BamHI and HindIII; forms large oligomers in solution by DLS; also called PF3D7_1304500; P. falciparum Hsp20; source: E. coli XL1 Blue, purified (IMAC)
B2: PfHsp20b (natural protein, Plasmodium falciparum, UniProt Q8IB02 1-172, looked up)
chain: MSCLCAGSTDQGEMKMAPPDYRIDIKEKPSIPKSKNALVNPNTVLEIEPDNNLKKQITFRPKVDIMYDADKCEAILVLDIPGFKIEDIDVEIGEGMLTVAGPRSQTELFETYGDSLVLHAKEREVGYFKRIFKLPNNILDDTAKATYKNGILEIKMECKQFSDMHKVTINQG
notes: Codon-harmonised synthetic gene in pQE30 between BamHI and HindIII; forms oligomers in solution by DLS; also called PF3D7_0816500; P. falciparum Hsp20; source: E. coli XL1 Blue, purified (IMAC)
B3: PfHsp20c (natural protein, Plasmodium falciparum, UniProt Q8I5T9 1-231, looked up)
chain: MSTTNILKPKIIIESSKEQGVGEKRSSTLSAPFEKNMFSTYSYSNPISNMRSSTHNEYKYNWTKYVNSSQIPHVDEYIKTFEGPNTTYYYETIPLKTNTNNIFEITPSQEELSRISYNPKIEIYSTCDFAVLMMDIPGVSKENLKVELEKGLLKVYGNKYKPHIEELEKRNEYHTKIIERLNEYYFCKIFQMPPAFSEGQNISCKLNNGELLVKILANELKTQKKVIDIQS
notes: Codon-harmonised synthetic gene in pQE30 between BamHI and HindIII; forms large oligomers in solution by DLS; also called PF3D7_1211100; P. falciparum Hsp20; source: E. coli XL1 Blue, purified (IMAC)

Experiments:
PfHsp20c = target: T2, PfHsp20c (Plasmodium falciparum, UniProt Q8I5T9); test: inhibition of chaperone activity (suppression of heat-induced MDH/CS aggregation); CD, DSF and DLS shifts also measured; type: biochemical
T2 construct: gene PF3D7_1211100; full-length, residues 1–231, N-terminal 6xHis

PfHsp20a = target: T3, PfHsp20a (Plasmodium falciparum, UniProt Q8IES0); test: as above; type: biochemical
T3 construct: gene PF3D7_1304500; full-length, residues 1–211, N-terminal 6xHis

PfHsp20b = target: T1, PfHsp20b; test: as above; type: biochemical
[1] = target: the molecule itself; test: dynamic light scattering; as a1 but in the presence of 3 uM quercetin; 20 mM Tris pH 7.4, 300 mM NaCl, 25 °C; oligomer size estimated from the hydrodynamic radius
[2] = target: the molecule itself; test: dynamic light scattering; 0-6 uM protein alone in 20 mM Tris pH 7.4, 300 mM NaCl, 25 °C; oligomer size estimated from the average hydrodynamic radius with the fluidic webserver

Molecule | IC50 (PfHsp20c) [nM] | IC50 (PfHsp20a) [nM] | IC50 (PfHsp20b) [nM] | stoichiometry N [1] | stoichiometry N [2]
O=c1c(O)c(-c2ccc(O)c(O)c2)oc2cc(O)cc(O)c12 [quercetin, 3,3′,4′,5,7-pentahydroxyflavone] | 110 ± 70 | 320 ± 110 | 550 ± 100 |  | 
B1 |  |  |  | 40 | 
B2 |  |  |  | 37 | ~38
B3 |  |  |  | 35 | 
